The source of these data is the nanobody polyreactivity screen of Harvey et al. (2022).

This series in a line: yeast display, Sf9 membrane polyspecificity reagent, FACS + sequencing; frameworks hold sequencing errors. Summed up: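 Genes from sorted yeast were amplified by colony PCR, read by MiSeq 2 × 250 sequencing and filtered on CDR length. These cells carried a synthetic nanobody library in Saccharomyces cerevisiae BJ5465 and were sorted by FACS into low and high (top ~1%) gates on anti-HA and streptavidin fluorescence. Polyreactivity is labelled according to the gate of origin.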
Turning to “QLQLVESGGGLVQAGGSLRLSCAGSGSIFVGYAMGWYRQAPGKARELVAAISTRGGSTYYADSVKGRFTISRDNAKNTVYLQMNSLKPEDTAVYYCAADYLDSTYGYVYGWDDYWGQGTQVTVSS”, the “polyreactivity (PSR sort gate)” value was “low polyreactivity”.
The entry for “QVQLVESGGGLVQAGGSLRLSCAASGRTFKYNVMGWYRPAPGKERELVAAISSGGGTNYADSVKGRFTISRDNAKKTVYFQINSLKPEDTAVYYCAAKYAWRLLEMYYWGQGTQVTVSS” is “low polyreactivity”.
In the case of “PDQLVESGGGLVQAGGSLRLSCAASGRTFSGYGMGWYRQAPGKERELVAAFSSSGDSTYYADSVKGRFSIARDNPKNTVYVQMNSLKPDDPAVYYCNDYRRSYNGFRYYYWGQGTQVTVSS” it was “low polyreactivity”; in that of “QVQLLESGGGLVQAGGSLRLSCAASGRTFWAYAMGWYRQAPGKERELVAAIDGGDGSTYYADSVKGRFTISRDYAKNTVYLQMNSLKPEDTAVYYCAAETPSGYYPQQYDYYLGQGTQVTVSS”, “high polyreactivity”; in that of “QVQLVESGGGLVQAGGSLRLSCAASGSIFKYYAMGWYRQAPGKERELVAAISSGGITNYADSVKGRFTISRDNAKNTVYLQMNSLKPEDTAVYYCAARDYVRFGLYDYDYWGQGTQVTVSS”, “low polyreactivity”.
With “QVQLVESGGGLVQAGGSLRLSCAASGSTFYIYAMGWYRQAPGKERELVAAITWRGGGTYYADSVKGRFTISRDNAKNTVYLQMNSLKPEDTAVYYCNADYPRSHYQYPYNYWGQGTQVTVSS”, the “polyreactivity (PSR sort gate)” value is reported as “high polyreactivity”.
In the case of “QVQLVESGGGLVQAGGSLRLSCAASGRTFGRYAMGWYRQAPGKERELVAAINRGGSTKYADSVKGRFTISRDNAKNTVYLQRNSQKPEDSAVYYCAKDLHPALHYDYWGQGTQVTVSS”, the “polyreactivity (PSR sort gate)” value is “low polyreactivity”.
Regarding “QVHLVESGGGLVQAGGSLRLSCAASGYIFYAIAMGWYRQAPGKERELVAAISTGGNTNYADSVKGRFTISRDNAKNTVYVQMNSLKPEDTAVYYCAVRSTGPYRWRTPVTRDYWGQGTQVTVSS”, the “polyreactivity (PSR sort gate)” value was “low polyreactivity”.
As for “QVQLVESGGGLVQAGGSLRLSCAASGRTFKVYAMGWYRPAPGKERELVAAISGSGGSTYYADSVKGRFTISRDNAKNTVYLQMNSLKPEDTAVYYCATDPSAPYTQLSSYYYWGQGTQVTVSS”, the “polyreactivity (PSR sort gate)” value is “low polyreactivity”.
In the case of “QVQLVESGGGLVQAGGSLRLSCAASGSTLAKYTMGWYRQAPGKERELVATISRRGGSTYYADSVKGRFTISRDNAKNTVYLQMNSLKPEDTAVYYCNAVGHTSIRRALDILDYWGQGTQVTVSS”, the “polyreactivity (PSR sort gate)” value is “high polyreactivity”.
Turning to “QVQLVESGGGLVQAGGSLRLSCAASGSTFRDNAMGWYRQAPGKERELVAAITVIDGTTYYADSVKGRFTISRDNAKNTVYLQMKSLKPEDTAVYYCAADTIWYEYYYWGQGTQVTVSS”, the “polyreactivity (PSR sort gate)” value is reported as “low polyreactivity”.
Turning to “QVQLVESGGGLVQAGGSLRLSCAASGYIFVRNAMGWYRQAPGKERELVAAISGSGGSTYYADSVKGRFTISRDNAKNTVYLQMNSLKPEDTAVYYFAADYATVTWRGIAYDYWGQGTQVSVSS”, the “polyreactivity (PSR sort gate)” value is “low polyreactivity”.
Take “QVQLVESGGGLVQAGGSLRLSCAASGSTYYYNAMGWYRQAPGKERELVARISRSGGSTYADSVKGRFSISRDNAKNTVYLQMNSLKPEDTAVYYCNAYAYGTPEFTSYAVRYDYWGQGTQVTVSS”: the “polyreactivity (PSR sort gate)” value is recorded as “low polyreactivity”.
Take “QVQLVESGGGLVQAGGSLRLSCAASGRIFSNYAMGWYRPAPGKESELVAAISRGGGRTFYADSVTGRFTISRDNAKNTVYLQKNSLKPEDTAVYYCATRSYYVKGDYWGQATQVTVSS”: the “polyreactivity (PSR sort gate)” value is on record as “high polyreactivity”.
Turning to “QVQLVESGGGLVQAGGSLRLSCAASGFIFWGNAMGWYRQAPGKERELLAAINYSGGRTYYADSVKGRFTISRDNAKNTVYLQMNSLKPEDSAAYYCAAKYRYHVSGYDYWGQATQVTVSS”, the “polyreactivity (PSR sort gate)” value was “high polyreactivity”.
“QVQLVDSGGGLVQAGGSLRLSCAASGIIFVENAMGWYRQAPGKEREMVAAISWDGGSTYYADSVKGRFTISRDNAKNTVYLQMNSLKPEDTAVYYCAADLTISYSQEYYYWGQGTQVTVSS”: the “polyreactivity (PSR sort gate)” value was “low polyreactivity”.
As for “HVQLVESGGGLVQAGGRLRLSCAASASIFDSNAMGWYRQAPGKERELVADIRGIGGSTYYADSVKGRFTISRDNAKNTVYLQMNSLKPEDTAVYYCNTSTLGGYYWGQGTQVTVSS”, the “polyreactivity (PSR sort gate)” value is reported as “low polyreactivity”.
“QVQLVESGGGLVQAGGSLRLSCAASGRIFKYYAMGWYRQAPGKERELFAAISRGGSTYYADSVKGRFTISRDNAKNTVYLQMNSLKPEDTAVYYCNAYRHGYVAYRRYDYWGQGTQVTVSS”: the “polyreactivity (PSR sort gate)” value is reported as “high polyreactivity”.
With “QVQLVESGGGLVQAGGSLRLSCAASGFTFPWYAMGWYIQAPGKERELVASISYRGDSTYYADSVKGRFTISRDNAKNTVYLQMNSLKPEDTAVYYCNKRLASYYLPGFDYWGQGTQVTVSS”, the “polyreactivity (PSR sort gate)” value is listed as “low polyreactivity”.
Consider “QVQLVESWGGLVQAGGSLRLSCAASGSTMRYYAMGWYRQAPGKERELVAAISSRGGRTYYSDSVKGRFTISRDNAKNTVYLQMNSLKPEDTAVYYCAARARERYYWGQGNQVTVSS”, for which the “polyreactivity (PSR sort gate)” value is on record as “high polyreactivity”.
“QVQLVESGGGLVQAGGSLRLSCAASGIIFAYAMGWYRQAPGKERELVAAISGRDGSTYYADSVKGRFTISRDNAKNTVYLQMNSLKPEDTAVYYCAKRISYLPVEMDYWGQGTQVTVSS”: the “polyreactivity (PSR sort gate)” value is reported as “low polyreactivity”.
Take “QVQLVESGRGLVQAGGSLRLSCAASGSTFRGNAMGWYRQAPGKERELVAAISVTGGSTYYADSVKVRFTISRDNAKNTVYLQMNSLKPEDTAVYYCADRVQRGQYSFVRDYYYWGQGTQVTVSS”: the “polyreactivity (PSR sort gate)” value is given as “high polyreactivity”.
The entry for “QVQLVESGGGLVQAGGSLRLSCAASGNIFRTYAMGWYRQAPGKERELVAAISRGGRTYYADSVKGRFTISRDNAKNSVYLQMNSLKPVDTAVYYCNVQPDRISRYDYWGQGTQVTVSS” is “high polyreactivity”.
The entry for “QVQLVESGGGLVQAGGSLRLSCAASGSTFSYYTMGWYRQAPGKERELVAAISFSGGSTYYADSVKGRFTISRDNAKNTVYLQMNSLKPEDTAVYYCAAKGYVGRYDYWGQGTQVTVSS” is “high polyreactivity”; for “PVQLVESGGGLVQAGGSLRLSCAASGRTYYTNAIGWYRQAAGNVRELVAAITGDGTSTYYADSVKGRFTMSRDNATYTVFLQINSLKPEDTAVYYCAATGGDRYEAYSYWGQGTQVTVSS” it is “low polyreactivity”; for “QVQLVETGGGIVQAGGSLRLSCAASGITFQSNTMGWYRQSPGKERELVAAITWTGGRTYYADSVKGRFTISRDNAKNTVYLQMNSLTPEDTAVYYCNADGYAICYNGKLDYWGQGTQVTVSS” it is “high polyreactivity”.
Consider “QVQLVESGGRLVQAGVILRLSCAASGSTFAPYAMGWYRQSPGKESELVATISASGGTTYYADSVKGRFTISRDNAKNTVYLQMNSLKPEDTAVYYCNADSNWYDQWNYYGLNDYWGQGTQVTVSS”, for which the “polyreactivity (PSR sort gate)” value is “low polyreactivity”.
Regarding “QVQLVESGGGLVQAGGSLRLSCAASGRTFYRYAMGWYRQAPGKERELVAAITGGGGSTYYADSVKGRFTISRDNAKNTVYLQMNSLKPEDTAVYYCNRRSYGFISYNFWGQGTQVTVSS”, the “polyreactivity (PSR sort gate)” value is “high polyreactivity”.
Turning to “QVQLVESGGGLVQAGGSLRLSCAASGFTFFVYAMGWYRQAPGKERELVAVITSGGTTNYADSVKGRFTISRDNAKNTVYLQMNSLKPEDTAVYYCATDNGGIPKYVPYDFWGQGTQVTVSS”, the “polyreactivity (PSR sort gate)” value is reported as “high polyreactivity”.
The entry for “QVQLQESGAGLVKAGGSLRLSCAASGNISNHNDMGWYRQAPGKEREFVAGITAGGITNYADSVKRRFTISRDNAKNSVYLQMKSLKPEDTAVYYCAAYPDYDKSYGYWGQGTQATVSS” is “low polyreactivity”.
As to “QVQLVESGGGLVQAGGSLRLSCAASGRTFYRYAMGWYRQAPGKERELVAVITSGSRTKYADSVKGRFTISRDNAKNTVYLQMNSLKPEDTAVYYCAARVLALEGKSSGEYWGQGTQVTVSS”, the “polyreactivity (PSR sort gate)” value is listed as “high polyreactivity”.
For the sequence “QVQLVDSGGGLVQAGGSLRLSCAASGRTFSANAMGWYRQAPGKERELVAGITSRGGGTYYADSVKGRFTISRDNAKNTVYLQMNSLKTEDTAVYYGAKASRYWSLYYWGQGTQVTVSS”, the “polyreactivity (PSR sort gate)” value was “high polyreactivity”.
In the case of “QVQLVESGGGLVQAGGSLRLSCAASGRTFYLYTMGWYRQAPGKERELVAAITRGGNTYYADSVKGRFTISRDNAKNTVYLQMNSLKPEDTAVYYCAAADYTTPVPYGRKGFDYWGQGTQVTVSS”, the “polyreactivity (PSR sort gate)” value was “low polyreactivity”.
With “QVQLVESGGGLVQAGGSLRLSCAASGFTSFANAMGWYRQAPGKERELVASITNSGGSTHYADSVKGRFTISRDNAKNTVYLQMNSLKPEDTAVYYCAADYWIVYRIYGSKYLGKWYDYWGQGTQVTVSS”, the “polyreactivity (PSR sort gate)” value is recorded as “low polyreactivity”.
In the case of “QVQLVESGGGLVQAGGSLRLSCAASGFIFPTYAMGWYRQAPGKERELVATITTNAGGTHYADSVKGRFTISRDNAKNTVYLQMNSLKPEDTAVYYCAAKQYRPKQRKYWTRIYDYWGQGTQVTVSS” it was “low polyreactivity”.
Take “QVQLVESGGGLVQAGGSLRFSCAASGYIFTPYAMGWYRQAPGKERELVAAISWSGGSTYYADSVKGRFTISRDNEKNTVYLQMNSLKPEDTAVYYCAAESAWGSRVFYSKFYYWGQGTQVTVSS”: the “polyreactivity (PSR sort gate)” value is “low polyreactivity”.
In the case of “QVQLVESGGGLVQAGGSLRLSCAVSGRTFYYYAMGWYRQAPGKERELVAAISSSGGSTYYADSVKGRFTISRDNAMNTVYLQLNRLKPEDTAVYYCNAYTTRSYGFDYWGQGTQVTVSS” it was “high polyreactivity”.
With “QVQLVESGGGLVQAGGSLRLSCAASGFIFPGHAMGWYRQAPGKERELVAAISTSGGSTYYADSVKGRFTISRDNAKNTVYLQMNSLKPEDTAVYYCATKRPYVDDYGYWGQGTQVTVSS”, the “polyreactivity (PSR sort gate)” value is given as “high polyreactivity”.
As to “QFQLVESGGGLVQAGGSLRLSCASSGSTFGYNAMGWYRQAPGKESELVAAISYSGGSTSYADSVKGRFTISRDNAKNTVYLQMNSLKPEDSAVYYCASDSYSQYSSQALEGFGYWGQGTQVTVSS”, the “polyreactivity (PSR sort gate)” value is “low polyreactivity”.
For the sequence “QVQLVESGGGLVQAGGSLRLSCAASGRPFPFNAMGWSRQAPGKDRELVAAISGRGGSTYYADSVKGRFTISRDNATNTGSLQRNSQKPEDTAVDYCAARLPWSYYRTQGYNSWGQGTQGTVSS”, the “polyreactivity (PSR sort gate)” value is given as “high polyreactivity”.
